{
  "source": "patent US20020081638",
  "key": {"[1]": {"biological_target": "histone H1"}, "[2]": {"biological_target": "histone H4"}, "[3]": {"biological_target": "free histones (mixture of H1, H3, H2B, H2A and H4; Boehringer Mannheim)"}, "[4]": {"biological_target": "wild-type N-terminus of human histone H3 peptide (aa 1-20)"}, "[5]": {"biological_target": "mutant H3 (K9L) N-terminal peptide"}, "[6]": {"biological_target": "N-terminus of rat macro-H2A peptide"}, "[7]": {"biological_target": "histone H2A"}, "[8]": {"biological_target": "histone H3"}, "[9]": {"biological_target": "insulin (Sigma)"}, "[10]": {"biological_target": "N-terminus of human CENP-A peptide"}, "[11]": {"biological_target": "histone H2B"}},
  "note": "“And” between values parts separate entries of the source, which are not always exact repeats. Equal values may be shown once.",
  "data": [
    {"protein": "GST-Suv39h1(82-412), murine (protein) CIRVLKQFHKDLERELVRRHRRSKPPRHLDPNLANYLVQKAKQRRALQRWEQELNAKRSHLGRITVENEVDLDGPPRSFVYINEYRVGEGITLNQVAVGCECQDCLLAPTGGCCPGASLHKFAYNDQGQVRLKAGQPIYECNSRCCCGYDCPNRVVQKGIRYDLCIFRTNDGRGWGVRTLEKIRKNSFVMEYVGEIITSEEAERRGQIYDRQGATYLFDLDYVEDVYTVDAAYYGNISHFVNHSCDPNLQVYNVFIDNLDERLPRIAFFATRTIWAGEELTFDYNMQVDPVDMESTRMDSNFGLAGLPGSPKKRVRIECKCGTTACRKYLF", "values": [
      {"measurement": "in vitro methylation of individual histones, fluorography", "setting": "[1]", "value": "A weak signal is present if H1 was used as the sole substrate"},
      {"measurement": "in vitro methylation of individual histones, fluorography", "setting": "[2]", "value": "no signals are detected with H2A, H2B or H4"},
      {"measurement": "in vitro HMTase assay, fluorography of 14C-methyl label", "setting": "[3]", "value": "A purified GST-product comprising aa 82-412 maintained HMTase activity (although at a reduced level as compared to transfected SUV39H1)"},
      {"measurement": "3H-incorporation of individual amino acids by microsequencing of the in vitro methylated peptide", "setting": "[4]", "value": "The results confirmed selective transfer of methyl-label to lysine 9"},
      {"measurement": "in vitro methylation of peptides, SDS-PAGE and fluorography", "setting": "[4]", "value": "These in vitro assays revealed selective methylation of the wild-type H3 peptide"},
      {"measurement": "in vitro methylation of peptides, SDS-PAGE and fluorography", "setting": "[5]", "value": "the mutated H3 (K9L) peptide was not a substrate"},
      {"measurement": "in vitro methylation of peptides, SDS-PAGE and fluorography", "setting": "[6]", "value": "no signals were detected with the CENP-A or macroH2A peptides, or with insulin"},
      {"measurement": "in vitro methylation of individual histones, fluorography", "setting": "[7]", "value": "no signals are detected with H2A, H2B or H4"},
      {"measurement": "in vitro methylation of individual histones, fluorography", "setting": "[8]", "value": "H3 is specifically methylated by GST-Suv39h1(82-412)"},
      {"measurement": "in vitro methylation of peptides, SDS-PAGE and fluorography", "setting": "[9]", "value": "no signals were detected with the CENP-A or macroH2A peptides, or with insulin"},
      {"measurement": "in vitro methylation of peptides, SDS-PAGE and fluorography", "setting": "[10]", "value": "no signals were detected with the CENP-A or macroH2A peptides, or with insulin"},
      {"measurement": "in vitro methylation of individual histones, fluorography", "setting": "[11]", "value": "no signals are detected with H2A, H2B or H4"}
    ]},
    {"protein": "(myc)3-Nchromo (aa 3-118), C-terminally truncated human SUV39H1 (protein) ENLKGCSVCCKSSWNQLQDLCRLAKLSCPALGISKRNLYDFEVEYLCDYKKIREQEYYLVKWRGYPDSESTWEPRQNLKCVRILKQFHKDLERELLRRHHRSKTPRHLDPSLANYL", "values": [
      {"measurement": "in vitro HMTase assay, fluorography of 14C-methyl label", "setting": "[3]", "value": "no signals were detected with extracts from a HeLa cell line that expresses only the N-terminal third of SUV39H1 (aa 3-118)"}
    ]},
    {"protein": "GST-Suv39h1(7-221), murine (protein) GCSVCCKSSWNQLQDLCRLAKLSCPALGVSKKNLYDFEVEYLCDYKKIREQEYYLVKWRGYPDSENTWEPRQNLKCIRVLKQFHKDLERELVRRHRRSKPPRHLDPNLANYLVQKAKQRRALQRWEQELNAKRSHLGRITVENEVDLDGPPRSFVYINEYRVGEGITLNQVAVGCECQDCLLAPTGGCCPGASLHKFAYNDQGQVRLKAGQPIYE", "values": [
      {"measurement": "in vitro HMTase assay, fluorography of 14C-methyl label", "setting": "[3]", "value": "a purified GST-product comprising aa 7-221 proved negative, even at higher protein concentrations"}
    ]},
    {"protein": "(myc)3-SUV39H1 (aa 3-412), triple myc-tagged full-length human SUV39H1 (protein) ENLKGCSVCCKSSWNQLQDLCRLAKLSCPALGISKRNLYDFEVEYLCDYKKIREQEYYLVKWRGYPDSESTWEPRQNLKCVRILKQFHKDLERELLRRHHRSKTPRHLDPSLANYLVQKAKQRRALRRWEQELNAKRSHLGRITVENEVDLDGPPRAFVYINEYRVGEGITLNQVAVGCECQDCLWAPTGGCCPGASLHKFAYNDQGQVRLRAGLPIYECNSRCRCGYDCPNRVVQKGIRYDLCIFRTDDGRGWGVRTLEKIRKNSFVMEYVGEIITSEEAERRGQIYDRQGATYLFDLDYVEDVYTVDAAYYGNISHFVNHSCDPNLQVYNVFIDNLDERLPRIAFFATRTIRAGEELTFDYNMQVDPVDMESTRMDSNFGLAGLPGSPKKRVRIECKCGTESCRKYLF", "values": [
      {"measurement": "in vitro HMTase assay, fluorography of 14C-methyl label", "setting": "[8]", "value": "indicating selective transfer of the methyl-label to H3"}
    ]},
    {"protein": "GST-CLR4(127-490), S. pombe (protein) KQSTALTTNDTSIILDDSLHTNSKKLGKTRNEVKEESQKRELVSNSIKEATSPKTSSILTKPRNPSKLDSYTHLSFYEKRELFRKKLREIEGPEVTLVNEVDDEPCPSLDFQFISQYRLTQGVIPPDPNFQSGCNCSSLGGCDLNNPSRCECLDDLDEPTHFAYDAQGRVRADTGAVIYECNSFCSCSMECPNRVVQRGRTLPLEIFKTKEKGWGVRSLRFAPAGTFITCYLGEVITSAEAAKRDKNYDDDGITYLFDLDMFDDASEYTVDAQNYGDVSRFFNHSCSPNIAIYSAVRNHGFRTIYDLAFFAIKDIQPLEELTFDYAGAKDFSPVQSQKSQQNRISKLRRQCKCGSANCRGWLFG", "values": [
      {"measurement": "in vitro HMTase assay with free histones, activity against recombinant SUV39H1 product", "setting": "[3]", "value": "3 fold and 5 fold"}
    ]}
  ]
}
